Assay results from patent publication US20230321192A1 (published 2023).
Residue numbers refer to the chain shown, from its start.

T1: Human Interleukin-18 (mature form), wild-type (human, UniProt Q14116 37-193)
T1 sequence: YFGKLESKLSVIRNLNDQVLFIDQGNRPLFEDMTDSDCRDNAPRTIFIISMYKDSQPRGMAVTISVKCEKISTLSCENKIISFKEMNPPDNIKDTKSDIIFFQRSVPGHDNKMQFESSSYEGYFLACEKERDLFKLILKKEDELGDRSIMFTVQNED

T2: Mouse IL-18BP (amino acids 31-194) (mouse, UniProt Q9Z0M9 29-193, biotin on the AviTag (BirA ligase))
T2 construct: Secreted from Expi293 cells (H7 signal peptide); also called mIL-18BP
T2 sequence: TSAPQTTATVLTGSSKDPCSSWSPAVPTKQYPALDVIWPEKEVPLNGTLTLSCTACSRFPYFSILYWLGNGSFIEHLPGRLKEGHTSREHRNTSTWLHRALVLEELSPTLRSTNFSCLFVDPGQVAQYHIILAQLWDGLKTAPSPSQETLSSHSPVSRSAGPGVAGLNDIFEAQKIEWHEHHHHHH

T3: Mouse IL-18Rα ectodomain (amino acids 19-329) (mouse, UniProt Q61098 19-329, biotin on the AviTag (BirA ligase))
T3 construct: range 19-329; Secreted from Expi293 cells (H7 signal peptide); also called mIL-18Rα; Ra
T3 sequence: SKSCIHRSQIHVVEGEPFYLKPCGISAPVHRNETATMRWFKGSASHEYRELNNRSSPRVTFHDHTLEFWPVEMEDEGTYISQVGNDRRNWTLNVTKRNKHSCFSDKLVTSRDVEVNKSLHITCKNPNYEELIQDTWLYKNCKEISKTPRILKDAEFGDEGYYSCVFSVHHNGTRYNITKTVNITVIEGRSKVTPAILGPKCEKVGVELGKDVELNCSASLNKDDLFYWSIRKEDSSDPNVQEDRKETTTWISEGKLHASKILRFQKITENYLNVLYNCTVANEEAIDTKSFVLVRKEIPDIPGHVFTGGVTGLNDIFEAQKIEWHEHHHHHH

B1: Human IL-18BP (amino acids 31-194) (receptor)
chain: TPVSQTTTAATASVRSTKDPCPSQPPVFPAAKQCPALEVTWPEVEVPLNGTLSLSCVACSRFPNFSILYWLGNGSFIEHLPGRLWEGSTSRERGSTGTQLCKALVLEQLTPALHSTNFSCVLVDPEQVVQRHVVLAQLWAGLRATLPPTQEALPSSHSSPQQQGGLNDIFEAQKIEWHEHHHHHH
modifications: biotin on the AviTag (BirA ligase) where used biotinylated
B2: mA7 (ligand)
chain: YFGRLHCTTAVIRNINDQVLFVDKRQPVFEDMTDIDQSASEPQTRLIIYAYGDNRVRGKAVTLSVKDSKMSTLSCKNKIISFEEMDPPENIDDIQSDLIFFQKRVPGHNKMEFESSLYEGHFLACQKEDDAFKLILKKKDENGDKSVMFTLTNLHQS
notes: Murine DR-IL-18 variant; recombinant with C-terminal hexahistidine tag in SPR; fusion and tag not written
B3: mC1 (ligand)
chain: B2 chain with Y1N, G52V, N54R, V56L, R104K
notes: as for B2
B4: mCS2 (ligand)
chain: B2 chain with Y1H, N54S, V56A
notes: Murine DR-IL-18 consensus variant; recombinant with C-terminal hexahistidine tag in SPR; fusion and tag not written
B5: mE8 (ligand)
chain: B2 chain with Y1N, A50V, G52T, N54G, V56R, R104K, N109D
notes: as for B2
B6: hA8 (ligand)
chain: T1 sequence with K8R, M51K, S55K, G59A, M60Q, S105D, D110K, N111H, V153I
notes: Human DR-IL-18 variant; display fusion not written
B7: hCS2 (ligand)
chain: T1 sequence with M51T, S55K, G59A, M60K, S105D, D110K, N111H, V153I
notes: Human DR-IL-18 consensus variant; E. coli recombinant with C-terminal hexahistidine tag in SPR; fusion and tag not written

Legend:
[1] = molecular target: T1, Human Interleukin-18 (mature form), …; assay: cell-based or functional assay
[2] = molecular target: T2, Mouse IL-18BP (amino acids 31-194); assay: SPR; end of the range tied to mA7 by Table 9
[3] = molecular target: T2, Mouse IL-18BP (amino acids 31-194); assay: SPR; end of the range tied to mC1 by Table 9
[4] = molecular target: T2, Mouse IL-18BP (amino acids 31-194); assay: SPR
Method: Experiments were conducted using a Biacore T100 and carried out at 25° C. Biotinylated IL-18Rα or IL-18BP were immobilized onto a Biacore biotin capture chip (Series S CAP sensor chip, GE Healthcare) to yield an Rmax of ~50 RU (IL-18Rα) or ~10 RU (IL-18BP). Measurements were made with serial dilutions of the IL-18 variants in HEPES buffered Saline-P+ buffer (10 mM HEPES pH 7.4, 150 mM NaCl, 0.005% surfactant P20). The surface was regenerated by three 60-sec injections of regeneration buffer (¾ (v/v) 8 M guanidine hydrochloride with ¼ (v/v) 1 M sodium hydroxide). Experiments were performed in multiple channels simultaneously for increased observations. All data were analyzed with the Biacore T100 evaluation software version 2.0 with a 1:1 Langmuir binding model.
As the human and mouse interspecies cross-reactivity of IL-18 for IL-18Rα is poor, murine equivalents of the DR-IL-18 variants that could be used for studies in mice were created. Similar to the approach taken for hIL-18 above, a combinatorial library of mIL-18 variants randomizing a similar set of mIL-18Rα/mIL-18BP contact residues (Table 3) was created, yielding a library of 4 × 10⁸ transformants. Directed evolution was performed on this library similar to how it was performed with the human IL-18 library; the selection strategy is summarized in FIG. 10A.

[5] = molecular target: T3, Mouse IL-18Rα ectodomain (amino acids …); assay: SPR; end of the range tied to mE8 by Table 9
[6] = molecular target: T2, Mouse IL-18BP (amino acids 31-194); assay: SPR; KD ratio normalized to WT IL-18; lower end taken as mE8 (lowest ratio in Table 9)
[7] = molecular target: B1; assay: on-yeast binding isotherm, flow cytometry

B1
IC50 of recombinant IL-18BP on the IL-18 HEK-Blue reporter signal (hIL-18 fixed at 5 nM) [1]: 0.003 µM

B2
Kd [2]: 14 µM

B3
Kd [3]: 29 µM

B4
Kd [4]: 11 µM

B5
Kd [5]: 0.0017 µM
IL-18 BP:Ra Dissociation Constant Ratio [6]: 9.3e+06

B6
EC50 [7]: > 1 µM

B7
EC50 [7]: > 1 µM
